Positions of bridges follow the written chain, without caps; N, C: chain ends. Non-standard residues stand in square brackets, D forms with d. dPhe(3,4,5-F3) = N[C@H](Cc1cc(F)c(F)c(F)c1)C(=O)O; dPhe(2-CF3) = N[C@H](Cc1ccccc1C(F)(F)F)C(=O)O; dPhe(4-CN) = N#Cc1ccc(C[C@@H](N)C(=O)O)cc1; dPhe(3-Cl) = N[C@H](Cc1cccc(Cl)c1)C(=O)O; dPhe(2-Cl) = N[C@H](Cc1ccccc1Cl)C(=O)O; dPhe(2-Me) = Cc1ccccc1C[C@@H](N)C(=O)O; Orn = NCCC[C@H](N)C(=O)O
B1: Ac-Arg-cyclo(Glu-Lys-D-Phe(3-Cl)-Arg-Trp-Orn)-NH2 (peptide)
peptide: Ac-REK[dPhe(3-Cl)]RW[Orn]-NH2
modifications: lactam 2-7
SMILES: CC(=O)N[C@@H](CCCNC(=N)N)C(=O)N[C@H]1CCC(=O)NCCC[C@@H](C(N)=O)NC(=O)[C@H](Cc2c[nH]c3ccccc23)NC(=O)[C@H](CCCNC(=N)N)NC(=O)[C@@H](Cc2cccc(Cl)c2)NC(=O)[C@H](CCCCN)NC1=O
notes: also called No. 100
B2: Ac-Arg-cyclo(Glu-Pro-D-Phe(2-Cl)-Arg-Trp-Orn)-NH2 (peptide)
peptide: Ac-REP[dPhe(2-Cl)]RW[Orn]-NH2
modifications: lactam 2-7
SMILES: CC(=O)N[C@@H](CCCNC(=N)N)C(=O)N[C@H]1CCC(=O)NCCC[C@@H](C(N)=O)NC(=O)[C@H](Cc2c[nH]c3ccccc23)NC(=O)[C@H](CCCNC(=N)N)NC(=O)[C@@H](Cc2ccccc2Cl)NC(=O)[C@@H]2CCCN2C1=O
notes: also called No. 88
B3: Ac-Arg-cyclo(Glu-Gln-D-Phe(3,4,5-triF)-Arg-Trp-Orn)-NH2 (peptide)
peptide: Ac-REQ[dPhe(3,4,5-F3)]RW[Orn]-NH2
modifications: lactam 2-7
SMILES: CC(=O)N[C@@H](CCCNC(=N)N)C(=O)N[C@H]1CCC(=O)NCCC[C@@H](C(N)=O)NC(=O)[C@H](Cc2c[nH]c3ccccc23)NC(=O)[C@H](CCCNC(=N)N)NC(=O)[C@@H](Cc2cc(F)c(F)c(F)c2)NC(=O)[C@H](CCC(N)=O)NC1=O

target: T1, human melanocortin-4 receptor (human, UniProt P32245 1-332); assay: [I125]-NDP-α-MSH competition, hMC4-R HEK-293 membranes
T1 construct: whole, on cells; functional assay: HEK293-T-REx-MC4-R cells induced with 0.1 or 10 ng/mL doxycycline; also called hMC4-R; MC4-R
T1 sequence (P32245 whole entry): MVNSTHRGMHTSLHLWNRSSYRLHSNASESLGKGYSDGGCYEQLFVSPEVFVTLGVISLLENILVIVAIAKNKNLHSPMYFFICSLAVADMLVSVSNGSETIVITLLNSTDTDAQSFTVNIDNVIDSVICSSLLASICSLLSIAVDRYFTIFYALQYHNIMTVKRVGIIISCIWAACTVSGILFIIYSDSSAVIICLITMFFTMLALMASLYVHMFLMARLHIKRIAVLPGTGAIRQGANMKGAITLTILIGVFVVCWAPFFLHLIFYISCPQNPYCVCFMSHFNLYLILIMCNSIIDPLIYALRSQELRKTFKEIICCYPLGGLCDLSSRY
Procedure: A competitive inhibition binding assay was performed for exemplified peptides according to the invention using membrane homogenates prepared from HEK-293 cells that express recombinant hMC4-R, hMC3-R, or hMC5-R, and from B-16 mouse melanoma cells (containing endogenous MC1-R). In some instances, HEK-293 cells that express recombinant hMC1-R were employed. Assays were performed in 96 well GF/B Millipore multiscreen filtration plates (MAFB NOB10) pre-coated with 0.5% bovine serum albumin (Fraction V). […] After incubation for 60 minutes at 37° C., the assay mixture was filtered and the membranes washed three times with ice-cold buffer. Filters were dried and counted in a gamma counter for bound radioactivity. […] Each assay was conducted in triplicate and the actual mean values are described, with results less than 0% reported as 0%. Ki values for test peptides of the present invention were determined using Graph-Pad Prism® curve-fitting software.

Row | Binder | Ki [nM]
1 | Ac-REN[dPhe(2-CF3)]RW[Orn]-NH2 (lactam 2-7, also called No. 116) [Ac-Arg-cyclo(Glu-Asn-D-Phe(2-CF3)-Arg-Trp-Orn)-NH2] | 7
2 | B1 | 4
3 | Ac-REV[dPhe(4-CN)]RW[Orn]-NH2 (lactam 2-7, also called No. 42) [Ac-Arg-cyclo(Glu-Val-D-Phe(4-CN)-Arg-Trp-Orn)-NH2] | 6
4 | Ac-REN[dPhe(3,4,5-F3)]RW[Orn]-NH2 (lactam 2-7, also called No. 95) [Ac-Arg-cyclo(Glu-Asn-D-Phe(3,4,5-triF)-Arg-Trp-Orn)-NH2] | 3
5 | B2 | 5
6 | Ac-REN[dPhe(2-Me)]RW[Orn]-NH2 (lactam 2-7, also called No. 73) [Ac-Arg-cyclo(Glu-Asn-D-Phe(2-Me)-Arg-Trp-Orn)-NH2] | 4
7 | Ac-REQ[dPhe(4-CN)]RW[Orn]-NH2 (lactam 2-7; also: acetate salt, acetate salt form; also called Ex 46) [Ac-Arg-cyclo(Glu-Gln-D-Phe(4-CN)-Arg-Trp-Orn)-NH2] | 4

target: T1, human melanocortin-4 receptor; assay: cell-based or functional assay

Row | Binder | EC50, cAMP, 0.1 ng/mL Doxycycline [nM] | EC50, cAMP, 10 ng/mL Doxycycline [nM] | Intrinsic Activity, cAMP, 0.1 ng/mL Doxycycline [%] | Intrinsic Activity, cAMP, 10 ng/mL Doxycycline [%]
8 | B3 | 0.8 | 0.1 | 49 | 100
9 | Ac-R[Orn]N[dPhe(3,4,5-F3)]RWE-NH2 (lactam 2-7) [Ac-Arg-cyclo(Orn-Asn-D-Phe(3,4,5-triF)-Arg-Trp-Glu)-NH2] | – | 0.235 | 24 | 100
10 | Ac-R[Orn]Q[dPhe(2-Me)]RWE-NH2 (lactam 2-7) [Ac-Arg-cyclo(Orn-Gln-D-Phe(2-Me)-Arg-Trp-Glu)-NH2] | 0.575 | 0.053 | 81 | 104
11 | Ac-R[Orn]Q[dPhe(3,4,5-F3)]RWE-NH2 (lactam 2-7) [Ac-Arg-cyclo(Orn-Gln-D-Phe(3,4,5-triF)-Arg-Trp-Glu)-NH2] | 0.45 | 0.14 | 47 | 100
12 | Ac-REN[dPhe(2-CF3)]RW[Orn]-NH2 (lactam 2-7, also called No. 116) [Ac-Arg-cyclo(Glu-Asn-D-Phe(2-CF3)-Arg-Trp-Orn)-NH2] | 0.68 | 0.095 | 77 | 104
13 | B1 | 6 | 0.27 | 27 | 93
14 | Ac-REV[dPhe(4-CN)]RW[Orn]-NH2 (lactam 2-7, also called No. 42) [Ac-Arg-cyclo(Glu-Val-D-Phe(4-CN)-Arg-Trp-Orn)-NH2] | – | 0.5 | 9 | 84
15 | Ac-REN[dPhe(3,4,5-F3)]RW[Orn]-NH2 (lactam 2-7, also called No. 95) [Ac-Arg-cyclo(Glu-Asn-D-Phe(3,4,5-triF)-Arg-Trp-Orn)-NH2] | 1 | 0.125 | 42 | 100
16 | B2 | – | 0.35 | 15 | 89
17 | Ac-REN[dPhe(2-Me)]RW[Orn]-NH2 (lactam 2-7, also called No. 73) [Ac-Arg-cyclo(Glu-Asn-D-Phe(2-Me)-Arg-Trp-Orn)-NH2] | 0.587 | 0.068 | 86 | 102
18 | Ac-REQ[dPhe(4-CN)]RW[Orn]-NH2 (lactam 2-7; also: acetate salt, acetate salt form; also called Ex 46) [Ac-Arg-cyclo(Glu-Gln-D-Phe(4-CN)-Arg-Trp-Orn)-NH2] | 0.666 | 0.173 | 40 | 97

— patent publication US20100311648A1 (AstraZeneca / MedImmune, published 2010)
